Data on two molecules can be found in US20080160018A1 (PDL BIOPHARMA, published 2008).

The target of assay [1] is T1, p75 chain of the human IL-2 receptor on YTJB cells (human, UniProt P14784 27-551).
T1 construct: whole, on cells; also called p75 protein; p75 antigen
T1 sequence (looked up): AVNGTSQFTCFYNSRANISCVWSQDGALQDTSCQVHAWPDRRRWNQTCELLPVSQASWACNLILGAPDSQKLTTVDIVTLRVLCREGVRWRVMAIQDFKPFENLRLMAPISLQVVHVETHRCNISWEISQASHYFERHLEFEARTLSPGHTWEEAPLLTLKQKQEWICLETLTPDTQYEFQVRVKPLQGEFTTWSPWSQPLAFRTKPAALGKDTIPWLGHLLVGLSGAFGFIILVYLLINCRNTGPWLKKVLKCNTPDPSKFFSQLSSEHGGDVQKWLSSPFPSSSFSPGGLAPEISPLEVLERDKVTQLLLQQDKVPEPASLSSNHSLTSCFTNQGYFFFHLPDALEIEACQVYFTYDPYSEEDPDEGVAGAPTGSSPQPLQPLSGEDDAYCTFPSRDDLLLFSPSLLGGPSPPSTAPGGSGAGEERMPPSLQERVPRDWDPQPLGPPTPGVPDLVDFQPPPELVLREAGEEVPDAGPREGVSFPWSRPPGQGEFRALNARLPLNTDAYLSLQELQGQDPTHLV
Nature of the assay: competition with radio-iodinated mouse mik-β1 on YTJB cells, Berzofsky calculation.
Method: After incubation for 2 hr at 0° C. the cells were washed twice with binding buffer without mouse Ig and collected by centrifugation. The radioactivity bound to cells was measured and expressed as the ratio of bound/free cpm.

Assay [2] concerns the target T1, p75 chain of the human IL-2 receptor on …. Nature of the assay: flow cytometry on YTJB cells. For orientation: Flow cytometry measures light scatter and fluorescence of single cells or particles in a stream.
Method: Cells were suspended in FACS buffer (PBS+2% BSA+0.1% azide) at approximately 5×10⁶/ml. 100 ul of cell suspension was transferred to a polystyrene tube and incubated with 100 ng of purified antibody on ice for 30 min. The cells were washed with FACS buffer and incubated with goat anti-human Ig antibody on ice for another 30 min. Then the cells were washed and incubated with FITC labeled rabbit anti-goat Ig antibody for 30 min. The cells were washed again and finally resuspended in PBS+1% paraformaldehyde. Cells were analyzed on a FACSmate (Becton Dickinson).

B1: humanized mik-β1 antibody (antibody, V domains shown)
VH: EVQLLESGGGLVQPGGSLRLSCAASGFTVTSYGVHWVRQAPGKGLEWVGVIWSGGSTDYNAAFISRFTISRDNSKNTLYLQMNSLQAEDTAIYYCARAGDYNYDGFAYWGQGTLVTVSS
VL: DIQMTQSPSSLSASVGDRVTITCSGSSSVSFMYWYQQKPGKAPKLLIYDTSNLASGVPSRFSGSGSGTDYTFTISSLQPEDIATYYCQQWSTYPLTFGQGTKVEVK
In the case of B1, the “fold difference of binding affinity against the mouse mik-β1 antibody” value in assay [1] was at most 2 fold.

B2: chimeric mik-β1 antibody (antibody, V domains shown)
VH: QVQLKQSGPGLVQPSQSLSITCTVSGFSVTSYGVHWIRQSPGKGLEWLGVIWSGGSTDYNAAFISRLTISKDNSKSQVFFKVNSLQPADTAIYYCARAGDYNYDGFAYWGQGTLVTVSA
VL: QIVLTQSPAIMSASPGEKVTMTCSGSSSVSFMYWYQQRPGSSPRLLIYDTSNLASGVPVRFSGSGSGTSYSLTISRMEAEDAATYYCQQWSTYPLTFGAGTKLELK
Consider B2, for which the binding result in assay [2] was “binds”.
